Our source for the EC50 [nM], 0% HSA values is US12679878B2, “CRF2 receptor agonists and their use in therapy” (SANOFI, priority 2020, dated 2026).

Starred links: 1 amine or outer side, 2 acyl side, 3 side chain; linkers in the order of their positions; H or OH if unused. Non-standard residues stand in square brackets, D forms with d. Groups on a side chain read outwards from the residue. No end group written: not given here. *: point of attachment. C18 diacid = O=C(O)CCCCCCCCCCCCCCCCC(=O)*; γGlu = O=C(O)[C@H](CCC(=O)[*:2])N[*:1]; Palmitoyl = CCCCCCCCCCCCCCCC(=O)*; AEEA = NCCOCCOCC(=O)O; Aib = CC(C)(N)C(=O)O

The test concerns the target human corticotropin-releasing factor 2α (CRF2 α receptor) (human), Q13324. The test is described as follows: cell-based or functional assay.

Sequence of human corticotropin-releasing factor 2α (CRF2 α receptor) (human), Q13324 (Q13324 20-411): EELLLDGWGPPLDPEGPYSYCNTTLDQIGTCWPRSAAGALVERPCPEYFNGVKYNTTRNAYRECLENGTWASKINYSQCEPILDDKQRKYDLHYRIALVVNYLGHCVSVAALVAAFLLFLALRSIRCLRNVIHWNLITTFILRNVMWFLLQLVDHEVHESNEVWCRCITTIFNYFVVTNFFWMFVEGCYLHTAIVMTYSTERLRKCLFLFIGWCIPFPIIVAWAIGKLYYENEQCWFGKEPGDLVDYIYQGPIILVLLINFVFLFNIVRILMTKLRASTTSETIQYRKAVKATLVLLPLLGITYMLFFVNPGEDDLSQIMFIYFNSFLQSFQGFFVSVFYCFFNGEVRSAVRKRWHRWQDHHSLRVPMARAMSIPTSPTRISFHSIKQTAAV

B1: SEQ ID NO: 28 (peptide)
peptide: IVLSLD[dV]PTKLK([γGlu-Palmitoyl])KKLLKQERKRKEREKAEKAARILERV-NH2
modifications: N-terminus assumed
SMILES: CCCCCCCCCCCCCCCC(=O)N[C@@H](CCC(=O)NCCCC[C@H](NC(=O)[C@H](CC(C)C)NC(=O)[C@H](CCCCN)NC(=O)[C@@H](NC(=O)[C@@H]1CCCN1C(=O)[C@H](NC(=O)[C@H](CC(=O)O)NC(=O)[C@H](CC(C)C)NC(=O)[C@H](CO)NC(=O)[C@H](CC(C)C)NC(=O)[C@@H](NC(=O)[C@@H](N)[C@@H](C)CC)C(C)C)C(C)C)[C@@H](C)O)C(=O)N[C@@H](CCCCN)C(=O)N[C@@H](CCCCN)C(=O)N[C@@H](CC(C)C)C(=O)N[C@@H](CC(C)C)C(=O)N[C@@H](CCCCN)C(=O)N[C@@H](CCC(N)=O)C(=O)N[C@@H](CCC(=O)O)C(=O)N[C@@H](CCCNC(=N)N)C(=O)N[C@@H](CCCCN)C(=O)N[C@@H](CCCNC(=N)N)C(=O)N[C@@H](CCCCN)C(=O)N[C@@H](CCC(=O)O)C(=O)N[C@@H](CCCNC(=N)N)C(=O)N[C@@H](CCC(=O)O)C(=O)N[C@@H](CCCCN)C(=O)N[C@@H](C)C(=O)N[C@@H](CCC(=O)O)C(=O)N[C@@H](CCCCN)C(=O)N[C@@H](C)C(=O)N[C@@H](C)C(=O)N[C@@H](CCCNC(=N)N)C(=O)N[C@H](C(=O)N[C@@H](CC(C)C)C(=O)N[C@@H](CCC(=O)O)C(=O)N[C@@H](CCCNC(=N)N)C(=O)N[C@H](C(N)=O)C(C)C)[C@@H](C)CC)C(=O)O
The molecule B1 registered an EC50 [nM], 0% HSA of 0.14 nM.

B2: SEQ ID NO: 29 (peptide)
peptide: IVLSLD[dV]PTKLK([γGlu-Palmitoyl])KKLLKQERKRKERE[Aib]AEKAARILERV-NH2
modifications: N-terminus assumed
SMILES: CCCCCCCCCCCCCCCC(=O)N[C@@H](CCC(=O)NCCCC[C@H](NC(=O)[C@H](CC(C)C)NC(=O)[C@H](CCCCN)NC(=O)[C@@H](NC(=O)[C@@H]1CCCN1C(=O)[C@H](NC(=O)[C@H](CC(=O)O)NC(=O)[C@H](CC(C)C)NC(=O)[C@H](CO)NC(=O)[C@H](CC(C)C)NC(=O)[C@@H](NC(=O)[C@@H](N)[C@@H](C)CC)C(C)C)C(C)C)[C@@H](C)O)C(=O)N[C@@H](CCCCN)C(=O)N[C@@H](CCCCN)C(=O)N[C@@H](CC(C)C)C(=O)N[C@@H](CC(C)C)C(=O)N[C@@H](CCCCN)C(=O)N[C@@H](CCC(N)=O)C(=O)N[C@@H](CCC(=O)O)C(=O)N[C@@H](CCCNC(=N)N)C(=O)N[C@@H](CCCCN)C(=O)N[C@@H](CCCNC(=N)N)C(=O)N[C@@H](CCCCN)C(=O)N[C@@H](CCC(=O)O)C(=O)N[C@@H](CCCNC(=N)N)C(=O)N[C@@H](CCC(=O)O)C(=O)NC(C)(C)C(=O)N[C@@H](C)C(=O)N[C@@H](CCC(=O)O)C(=O)N[C@@H](CCCCN)C(=O)N[C@@H](C)C(=O)N[C@@H](C)C(=O)N[C@@H](CCCNC(=N)N)C(=O)N[C@H](C(=O)N[C@@H](CC(C)C)C(=O)N[C@@H](CCC(=O)O)C(=O)N[C@@H](CCCNC(=N)N)C(=O)N[C@H](C(N)=O)C(C)C)[C@@H](C)CC)C(=O)O
Turning to B2, the EC50 [nM], 0% HSA came out at 0.12 nM.

B3: SEQ ID NO: 26 (peptide)
peptide: IVLSLD[dV]PTKLK([γGlu-Palmitoyl])KKLLKQERKRKERE[Aib]AEKNARILERV-NH2
modifications: N-terminus assumed
SMILES: CCCCCCCCCCCCCCCC(=O)N[C@@H](CCC(=O)NCCCC[C@H](NC(=O)[C@H](CC(C)C)NC(=O)[C@H](CCCCN)NC(=O)[C@@H](NC(=O)[C@@H]1CCCN1C(=O)[C@H](NC(=O)[C@H](CC(=O)O)NC(=O)[C@H](CC(C)C)NC(=O)[C@H](CO)NC(=O)[C@H](CC(C)C)NC(=O)[C@@H](NC(=O)[C@@H](N)[C@@H](C)CC)C(C)C)C(C)C)[C@@H](C)O)C(=O)N[C@@H](CCCCN)C(=O)N[C@@H](CCCCN)C(=O)N[C@@H](CC(C)C)C(=O)N[C@@H](CC(C)C)C(=O)N[C@@H](CCCCN)C(=O)N[C@@H](CCC(N)=O)C(=O)N[C@@H](CCC(=O)O)C(=O)N[C@@H](CCCNC(=N)N)C(=O)N[C@@H](CCCCN)C(=O)N[C@@H](CCCNC(=N)N)C(=O)N[C@@H](CCCCN)C(=O)N[C@@H](CCC(=O)O)C(=O)N[C@@H](CCCNC(=N)N)C(=O)N[C@@H](CCC(=O)O)C(=O)NC(C)(C)C(=O)N[C@@H](C)C(=O)N[C@@H](CCC(=O)O)C(=O)N[C@@H](CCCCN)C(=O)N[C@@H](CC(N)=O)C(=O)N[C@@H](C)C(=O)N[C@@H](CCCNC(=N)N)C(=O)N[C@H](C(=O)N[C@@H](CC(C)C)C(=O)N[C@@H](CCC(=O)O)C(=O)N[C@@H](CCCNC(=N)N)C(=O)N[C@H](C(N)=O)C(C)C)[C@@H](C)CC)C(=O)O
For the molecule B3, the EC50 [nM], 0% HSA worked out at 0.01 nM.

B4: SEQ ID NO: 24 (peptide)
peptide: IVLSLD[dV]PTKLK([AEEA-AEEA-γGlu-C18 diacid])QKLLKQERQRKEREQAEKNKRILERV-NH2
modifications: N-terminus assumed
SMILES: CC[C@H](C)[C@H](N)C(=O)N[C@H](C(=O)N[C@@H](CC(C)C)C(=O)N[C@@H](CO)C(=O)N[C@@H](CC(C)C)C(=O)N[C@@H](CC(=O)O)C(=O)N[C@@H](C(=O)N1CCC[C@H]1C(=O)N[C@H](C(=O)N[C@@H](CCCCN)C(=O)N[C@@H](CC(C)C)C(=O)N[C@@H](CCCCNC(=O)COCCOCCNC(=O)COCCOCCNC(=O)CC[C@H](NC(=O)CCCCCCCCCCCCCCCCC(=O)O)C(=O)O)C(=O)N[C@@H](CCC(N)=O)C(=O)N[C@@H](CCCCN)C(=O)N[C@@H](CC(C)C)C(=O)N[C@@H](CC(C)C)C(=O)N[C@@H](CCCCN)C(=O)N[C@@H](CCC(N)=O)C(=O)N[C@@H](CCC(=O)O)C(=O)N[C@@H](CCCNC(=N)N)C(=O)N[C@@H](CCC(N)=O)C(=O)N[C@@H](CCCNC(=N)N)C(=O)N[C@@H](CCCCN)C(=O)N[C@@H](CCC(=O)O)C(=O)N[C@@H](CCCNC(=N)N)C(=O)N[C@@H](CCC(=O)O)C(=O)N[C@@H](CCC(N)=O)C(=O)N[C@@H](C)C(=O)N[C@@H](CCC(=O)O)C(=O)N[C@@H](CCCCN)C(=O)N[C@@H](CC(N)=O)C(=O)N[C@@H](CCCCN)C(=O)N[C@@H](CCCNC(=N)N)C(=O)N[C@H](C(=O)N[C@@H](CC(C)C)C(=O)N[C@@H](CCC(=O)O)C(=O)N[C@@H](CCCNC(=N)N)C(=O)N[C@H](C(N)=O)C(C)C)[C@@H](C)CC)[C@@H](C)O)C(C)C)C(C)C
In the case of B4, the EC50 [nM], 0% HSA was 6.95 nM.

B5: SEQ ID NO: 25 (peptide)
peptide: IVLSLD[dV]PTKLK([γGlu-Palmitoyl])KKLLKQERKRKEREKAEKNARILERV-NH2
modifications: N-terminus assumed
SMILES: CCCCCCCCCCCCCCCC(=O)N[C@@H](CCC(=O)NCCCC[C@H](NC(=O)[C@H](CC(C)C)NC(=O)[C@H](CCCCN)NC(=O)[C@@H](NC(=O)[C@@H]1CCCN1C(=O)[C@H](NC(=O)[C@H](CC(=O)O)NC(=O)[C@H](CC(C)C)NC(=O)[C@H](CO)NC(=O)[C@H](CC(C)C)NC(=O)[C@@H](NC(=O)[C@@H](N)[C@@H](C)CC)C(C)C)C(C)C)[C@@H](C)O)C(=O)N[C@@H](CCCCN)C(=O)N[C@@H](CCCCN)C(=O)N[C@@H](CC(C)C)C(=O)N[C@@H](CC(C)C)C(=O)N[C@@H](CCCCN)C(=O)N[C@@H](CCC(N)=O)C(=O)N[C@@H](CCC(=O)O)C(=O)N[C@@H](CCCNC(=N)N)C(=O)N[C@@H](CCCCN)C(=O)N[C@@H](CCCNC(=N)N)C(=O)N[C@@H](CCCCN)C(=O)N[C@@H](CCC(=O)O)C(=O)N[C@@H](CCCNC(=N)N)C(=O)N[C@@H](CCC(=O)O)C(=O)N[C@@H](CCCCN)C(=O)N[C@@H](C)C(=O)N[C@@H](CCC(=O)O)C(=O)N[C@@H](CCCCN)C(=O)N[C@@H](CC(N)=O)C(=O)N[C@@H](C)C(=O)N[C@@H](CCCNC(=N)N)C(=O)N[C@H](C(=O)N[C@@H](CC(C)C)C(=O)N[C@@H](CCC(=O)O)C(=O)N[C@@H](CCCNC(=N)N)C(=O)N[C@H](C(N)=O)C(C)C)[C@@H](C)CC)C(=O)O
B5 registered an EC50 [nM], 0% HSA of 0.09 nM.

B6: SEQ ID NO: 27 (peptide)
peptide: IVLSLD[dV]PTKLK([γGlu-Palmitoyl])KKLLKQERKRKEREQAEKNARILERV-NH2
modifications: N-terminus assumed
SMILES: CCCCCCCCCCCCCCCC(=O)N[C@@H](CCC(=O)NCCCC[C@H](NC(=O)[C@H](CC(C)C)NC(=O)[C@H](CCCCN)NC(=O)[C@@H](NC(=O)[C@@H]1CCCN1C(=O)[C@H](NC(=O)[C@H](CC(=O)O)NC(=O)[C@H](CC(C)C)NC(=O)[C@H](CO)NC(=O)[C@H](CC(C)C)NC(=O)[C@@H](NC(=O)[C@@H](N)[C@@H](C)CC)C(C)C)C(C)C)[C@@H](C)O)C(=O)N[C@@H](CCCCN)C(=O)N[C@@H](CCCCN)C(=O)N[C@@H](CC(C)C)C(=O)N[C@@H](CC(C)C)C(=O)N[C@@H](CCCCN)C(=O)N[C@@H](CCC(N)=O)C(=O)N[C@@H](CCC(=O)O)C(=O)N[C@@H](CCCNC(=N)N)C(=O)N[C@@H](CCCCN)C(=O)N[C@@H](CCCNC(=N)N)C(=O)N[C@@H](CCCCN)C(=O)N[C@@H](CCC(=O)O)C(=O)N[C@@H](CCCNC(=N)N)C(=O)N[C@@H](CCC(=O)O)C(=O)N[C@@H](CCC(N)=O)C(=O)N[C@@H](C)C(=O)N[C@@H](CCC(=O)O)C(=O)N[C@@H](CCCCN)C(=O)N[C@@H](CC(N)=O)C(=O)N[C@@H](C)C(=O)N[C@@H](CCCNC(=N)N)C(=O)N[C@H](C(=O)N[C@@H](CC(C)C)C(=O)N[C@@H](CCC(=O)O)C(=O)N[C@@H](CCCNC(=N)N)C(=O)N[C@H](C(N)=O)C(C)C)[C@@H](C)CC)C(=O)O
Consider B6, for which the EC50 [nM], 0% HSA is 0.01 nM.
